# Measured values reported in patent publication US20110008369A1.
# Molecular target: human PD-1 (Programmed Cell Death 1), expressed on cells (human) (UniProt Q15116)
# Assay: cell binding; 0.2 ug/ml IgG on activated human CD4+ cells, 37 C
# human PD-1 (Programmed Cell Death 1), expressed on cells (human), sequence (Q15116 25-288 limits assumed): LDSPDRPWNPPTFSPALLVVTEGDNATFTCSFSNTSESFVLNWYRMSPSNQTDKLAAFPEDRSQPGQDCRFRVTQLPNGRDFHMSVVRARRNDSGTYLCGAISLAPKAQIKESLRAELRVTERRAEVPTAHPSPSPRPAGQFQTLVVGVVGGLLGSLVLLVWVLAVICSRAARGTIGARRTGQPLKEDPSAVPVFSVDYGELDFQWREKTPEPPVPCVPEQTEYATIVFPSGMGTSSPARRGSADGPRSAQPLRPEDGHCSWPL
binder,measurement,value
"mAb 6D10 (antibody, part only; not given: light chain variable domain, V domains shown, part only) VH: EVKLVESGGGLVQPGGSRKLSCAASGFTFSSFGMHWVRQAPEKGLEWVAYVSSASSVIHYADTVKGRFTISRDNPKNTLFLQMTSLRSEDTAMYYCARSGYYGTWFPYWGQGTLVTVS",MFI,133 MFI
